In IntAct's records for PubMed 35512704:

B1: Mothers against decapentaplegic homolog 4 (Homo sapiens), Q13485 (parent)
chain: MDNMSITNTPTSNDACLSIVHSLMCHRQGGESETFAKRAIESLVKKLKEKKDELDSLITAITTNGAHPSKCVTIQRTLDGRLQVAGRKGFPHVIYARLWRWPDLHKNELKHVKYCQYAFDLKCDSVCVNPYHYERVVSPGIDLSGLTLQSNAPSSMMVKDEYVHDFEGQPSLSTEGHSIQTIQHPPSNRASTETYSTPALLAPSESNATSTANFPNIPVASTSQPASILGGSHSEGLLQIASGPQPGQQQNGFTGQPATYHHNSTTTWTGSRTAPYTPNLPHHQNGHLQHHPPMPPHPGHYWPVHNELAFQPPISNHPAPEYWCSIAYFEMDVQVGETFKVPSSCPIVTVDGYVDPSGGDRFCLGQLSNVHRTEAIERARLHIGKGVQLECKGEGDVWVRCLSDHAVFVQSYYLDREAGRAPGDAVHKIYPSAYIKVFDLRQCHRQMQQQAATAQAAAAAQAAAVAGNIPGPGSVGGIAPAISLSAAAGIGVDDLRRLCILRMSFVKGWGPDYPRQSIKETPCWIEIHLHRALQLLDEVLHTMPIADPQPLD
partner: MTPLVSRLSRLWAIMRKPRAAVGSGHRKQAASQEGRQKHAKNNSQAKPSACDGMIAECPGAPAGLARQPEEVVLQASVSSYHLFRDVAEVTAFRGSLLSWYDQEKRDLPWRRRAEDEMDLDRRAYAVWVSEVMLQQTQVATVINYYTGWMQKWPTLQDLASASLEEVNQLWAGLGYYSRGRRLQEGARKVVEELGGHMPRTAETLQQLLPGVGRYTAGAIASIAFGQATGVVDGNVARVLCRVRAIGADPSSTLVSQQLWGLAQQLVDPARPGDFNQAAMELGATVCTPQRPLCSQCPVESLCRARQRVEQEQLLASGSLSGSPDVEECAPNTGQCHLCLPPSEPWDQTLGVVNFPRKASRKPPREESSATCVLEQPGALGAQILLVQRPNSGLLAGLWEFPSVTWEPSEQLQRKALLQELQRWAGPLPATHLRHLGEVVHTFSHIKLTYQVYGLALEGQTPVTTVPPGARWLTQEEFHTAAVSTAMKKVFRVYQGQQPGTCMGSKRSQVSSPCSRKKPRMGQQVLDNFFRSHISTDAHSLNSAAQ
B2: Mothers against decapentaplegic homolog 4 (Homo sapiens), Q13485 (parent)
chain: B1 chain
partner: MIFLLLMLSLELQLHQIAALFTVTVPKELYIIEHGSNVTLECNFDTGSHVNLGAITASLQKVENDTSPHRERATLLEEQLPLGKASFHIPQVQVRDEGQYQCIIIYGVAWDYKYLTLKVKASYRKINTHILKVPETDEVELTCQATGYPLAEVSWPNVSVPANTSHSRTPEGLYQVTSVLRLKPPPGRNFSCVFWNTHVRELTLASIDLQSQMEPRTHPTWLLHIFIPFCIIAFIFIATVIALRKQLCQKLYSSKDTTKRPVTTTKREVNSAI
B3: Mothers against decapentaplegic homolog 4 (Homo sapiens), Q13485 (parent)
chain: B1 chain
partner: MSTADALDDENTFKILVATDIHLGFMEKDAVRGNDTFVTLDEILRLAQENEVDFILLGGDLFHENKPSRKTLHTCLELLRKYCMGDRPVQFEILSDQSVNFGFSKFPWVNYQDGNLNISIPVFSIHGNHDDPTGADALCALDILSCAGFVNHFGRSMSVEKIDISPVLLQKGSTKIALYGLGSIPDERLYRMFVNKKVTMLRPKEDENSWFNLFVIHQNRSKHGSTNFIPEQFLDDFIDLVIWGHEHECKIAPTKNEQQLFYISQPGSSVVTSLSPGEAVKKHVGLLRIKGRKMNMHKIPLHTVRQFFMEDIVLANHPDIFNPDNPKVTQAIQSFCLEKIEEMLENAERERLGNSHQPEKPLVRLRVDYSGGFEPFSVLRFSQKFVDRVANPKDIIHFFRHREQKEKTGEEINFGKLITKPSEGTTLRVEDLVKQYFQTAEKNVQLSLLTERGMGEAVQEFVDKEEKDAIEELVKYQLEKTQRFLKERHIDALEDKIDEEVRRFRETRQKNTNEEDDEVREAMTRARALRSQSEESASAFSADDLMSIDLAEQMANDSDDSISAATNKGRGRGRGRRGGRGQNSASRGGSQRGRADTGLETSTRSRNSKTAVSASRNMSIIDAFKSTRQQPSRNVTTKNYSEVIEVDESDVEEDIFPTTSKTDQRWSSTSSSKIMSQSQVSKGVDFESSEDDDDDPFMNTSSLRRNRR
B4: Mothers against decapentaplegic homolog 4 (Homo sapiens), Q13485 (parent)
chain: B1 chain
partner: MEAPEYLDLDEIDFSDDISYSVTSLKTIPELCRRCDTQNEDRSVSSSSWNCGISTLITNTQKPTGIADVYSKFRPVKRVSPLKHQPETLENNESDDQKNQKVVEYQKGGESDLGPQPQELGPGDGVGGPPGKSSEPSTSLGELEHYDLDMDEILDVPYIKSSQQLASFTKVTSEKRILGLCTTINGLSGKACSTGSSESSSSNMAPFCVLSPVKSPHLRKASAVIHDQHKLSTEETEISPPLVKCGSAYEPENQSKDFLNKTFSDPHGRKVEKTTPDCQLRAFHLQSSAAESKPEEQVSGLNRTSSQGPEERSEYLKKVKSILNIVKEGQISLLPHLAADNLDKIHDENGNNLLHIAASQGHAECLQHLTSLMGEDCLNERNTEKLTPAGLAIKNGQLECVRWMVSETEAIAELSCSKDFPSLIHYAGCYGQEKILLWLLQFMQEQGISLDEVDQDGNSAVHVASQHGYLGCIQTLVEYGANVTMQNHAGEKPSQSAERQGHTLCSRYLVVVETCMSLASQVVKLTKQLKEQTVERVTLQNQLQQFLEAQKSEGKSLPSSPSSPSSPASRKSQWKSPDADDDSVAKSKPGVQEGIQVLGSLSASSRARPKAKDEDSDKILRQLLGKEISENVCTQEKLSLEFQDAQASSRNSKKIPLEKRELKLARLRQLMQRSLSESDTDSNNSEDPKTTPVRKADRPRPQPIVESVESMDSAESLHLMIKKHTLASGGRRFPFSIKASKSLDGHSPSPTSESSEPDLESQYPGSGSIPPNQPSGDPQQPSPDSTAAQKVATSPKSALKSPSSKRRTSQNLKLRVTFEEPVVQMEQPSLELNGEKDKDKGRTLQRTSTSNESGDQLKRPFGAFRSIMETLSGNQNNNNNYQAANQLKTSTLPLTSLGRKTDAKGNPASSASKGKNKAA
B5: Mothers against decapentaplegic homolog 4 (Homo sapiens), Q13485 (parent)
chain: B1 chain
partner: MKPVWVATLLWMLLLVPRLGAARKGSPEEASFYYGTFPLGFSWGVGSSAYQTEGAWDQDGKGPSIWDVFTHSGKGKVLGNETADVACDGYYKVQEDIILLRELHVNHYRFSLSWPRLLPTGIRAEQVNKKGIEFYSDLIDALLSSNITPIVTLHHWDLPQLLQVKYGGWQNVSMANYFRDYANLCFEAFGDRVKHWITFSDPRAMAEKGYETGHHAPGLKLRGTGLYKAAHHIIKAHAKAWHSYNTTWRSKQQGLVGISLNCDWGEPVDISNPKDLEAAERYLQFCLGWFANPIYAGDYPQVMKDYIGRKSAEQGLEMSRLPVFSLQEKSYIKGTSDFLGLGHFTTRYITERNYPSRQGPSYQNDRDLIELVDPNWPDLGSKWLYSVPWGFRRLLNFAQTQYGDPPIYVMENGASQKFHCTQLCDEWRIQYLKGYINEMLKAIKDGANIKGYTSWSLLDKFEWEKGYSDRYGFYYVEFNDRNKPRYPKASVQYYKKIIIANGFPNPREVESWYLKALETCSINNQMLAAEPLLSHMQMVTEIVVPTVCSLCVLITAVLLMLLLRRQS
B6: Mothers against decapentaplegic homolog 4 (Homo sapiens), Q13485 (parent)
chain: B1 chain
partner: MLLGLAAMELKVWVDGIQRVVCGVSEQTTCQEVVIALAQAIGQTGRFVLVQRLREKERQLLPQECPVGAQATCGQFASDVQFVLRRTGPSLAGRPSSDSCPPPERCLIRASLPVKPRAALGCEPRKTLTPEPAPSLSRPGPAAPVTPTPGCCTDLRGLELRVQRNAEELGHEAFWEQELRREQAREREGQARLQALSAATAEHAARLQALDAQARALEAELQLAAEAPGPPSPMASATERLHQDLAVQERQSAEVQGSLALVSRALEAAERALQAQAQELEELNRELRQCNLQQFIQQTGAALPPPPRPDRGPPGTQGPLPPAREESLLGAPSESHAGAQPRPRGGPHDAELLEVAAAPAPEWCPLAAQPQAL
B7: Mothers against decapentaplegic homolog 4 (Homo sapiens), Q13485 (parent)
chain: B1 chain
partner: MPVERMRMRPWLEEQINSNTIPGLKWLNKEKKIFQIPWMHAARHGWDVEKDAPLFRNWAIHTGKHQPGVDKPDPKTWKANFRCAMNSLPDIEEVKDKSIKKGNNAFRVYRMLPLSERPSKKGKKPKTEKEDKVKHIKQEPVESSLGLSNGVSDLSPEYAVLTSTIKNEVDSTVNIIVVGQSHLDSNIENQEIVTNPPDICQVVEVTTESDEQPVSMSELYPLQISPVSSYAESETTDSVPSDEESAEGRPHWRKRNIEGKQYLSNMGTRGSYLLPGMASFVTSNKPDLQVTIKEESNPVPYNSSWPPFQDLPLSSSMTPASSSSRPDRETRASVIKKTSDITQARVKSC
B8: Mothers against decapentaplegic homolog 4 (Homo sapiens), Q13485 (parent)
chain: B1 chain
partner: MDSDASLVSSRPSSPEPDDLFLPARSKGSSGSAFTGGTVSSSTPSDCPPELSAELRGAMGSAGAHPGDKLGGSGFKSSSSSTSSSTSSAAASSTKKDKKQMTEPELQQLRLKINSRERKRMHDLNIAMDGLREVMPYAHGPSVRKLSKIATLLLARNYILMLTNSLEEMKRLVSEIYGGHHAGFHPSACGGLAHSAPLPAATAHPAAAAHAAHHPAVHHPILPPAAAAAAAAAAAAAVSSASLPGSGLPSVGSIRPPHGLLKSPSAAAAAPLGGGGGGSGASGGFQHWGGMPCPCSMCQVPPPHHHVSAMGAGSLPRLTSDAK

Variants of: B1
Conditions: with mutyh_human MUTYH

effect of a mutation on the interaction | Variant
with no effect | G386D

Variants of: B1
Conditions: with mutyh_human MUTYH
Remark: another data set of the same source

effect of a mutation on the interaction | Variant
with no effect | R361C

Variants of: B2
Conditions: with pd1l2_human PDCD1LG2, Q9BQ51

effect of a mutation on the interaction | Variant
with no effect | D351H

Variants of: B2
Conditions: with pd1l2_human PDCD1LG2, Q9BQ51
Remark: another data set of the same source

effect of a mutation on the interaction | Variant
with no effect | G386D

Variants of: B3
Conditions: with mre11_human MRE11, P49959

effect of a mutation on the interaction | Variant
with no effect | R361H

Variants of: B3
Conditions: with mre11_human MRE11, P49959
Remark: another data set of the same source

effect of a mutation on the interaction | Variant
with no effect | R361C

Variants of: B3
Conditions: with mre11_human MRE11, P49959
Remark: another data set of the same source

effect of a mutation on the interaction | Variant
with no effect | G386D

Variants of: B3
Conditions: with mre11_human MRE11, P49959
Remark: another data set of the same source

effect of a mutation on the interaction | Variant
with no effect | D351H

Variants of: B4
Conditions: with sncap_human SNCAIP

effect of a mutation on the interaction | Variant
with no effect | R361H

Variants of: B4
Conditions: with sncap_human SNCAIP
Remark: another data set of the same source

effect of a mutation on the interaction | Variant
with no effect | R361C

Variants of: B4
Conditions: with sncap_human SNCAIP
Remark: another data set of the same source

effect of a mutation on the interaction | Variant
with no effect | D351H

Variants of: B4
Conditions: with sncap_human SNCAIP
Remark: another data set of the same source

effect of a mutation on the interaction | Variant
with no effect | G386D

Variants of: B5
Conditions: with lctl_human LCTL

effect of a mutation on the interaction | Variant
with no effect | G386D

Variants of: B5
Conditions: with lctl_human LCTL
Remark: another data set of the same source

effect of a mutation on the interaction | Variant
with no effect | D351H

Variants of: B6
Conditions: with rasf7_human RASSF7, Q02833

effect of a mutation on the interaction | Variant
with no effect | G386D

Variants of: B6
Conditions: with rasf7_human RASSF7, Q02833
Remark: another data set of the same source

effect of a mutation on the interaction | Variant
with no effect | D351H

Variants of: B6
Conditions: with rasf7_human RASSF7, Q02833
Remark: another data set of the same source

effect of a mutation on the interaction | Variant
with no effect | R361C

Variants of: B6
Conditions: with rasf7_human RASSF7, Q02833
Remark: another data set of the same source

effect of a mutation on the interaction | Variant
with no effect | R361H

Variants of: B7
Conditions: with irf2_human IRF2, P14316

effect of a mutation on the interaction | Variant
with no effect | R361C

Variants of: B7
Conditions: with irf2_human IRF2, P14316
Remark: another data set of the same source

effect of a mutation on the interaction | Variant
with no effect | G386D

Variants of: B7
Conditions: with irf2_human IRF2, P14316
Remark: another data set of the same source

effect of a mutation on the interaction | Variant
with no effect | D351H

Variants of: B8
Conditions: with olig2_human OLIG2, Q13516

effect of a mutation on the interaction | Variant
with no effect | G386D

Variants of: B8
Conditions: with olig2_human OLIG2, Q13516
Remark: another data set of the same source

effect of a mutation on the interaction | Variant
with no effect | R361C
